Source: US6551840B2, “Method of screening TGF-β-inhibiting substances” (Chugai Seiyaku Kabushiki Kaisha, priority 1997, dated 2003)

Key:
[1] = test system: mouse kidney mesangial cell line SV40MES13; assay: Type I and type IV collagen EIA in SV40MES13 cells expressing TAK1-DN with or without TGF-β; format: cell-based; settings: 2.5 ng/ml TGF-β, 24 hours; for increase of type IV collagen in the culture supernatant by TGF-β addition: control MES/NEO about 2.0 fold; for increase of type I collagen in the culture supernatant by TGF-β addition: control MES/NEO about 3.6 fold
Experimental: The mouse mesangial cell line SV40MES13 (MES/DN3 and MES/DN6) into which pTAK1DN had been introduced and the control cells (MES/NEO) into which pCOS1 containing no inserted genes had been introduced were incubated in a low-serum medium (Medium 199 containing 0.2% FBS) with or without 2.5 ng/ml TGF-β for 24 hours. The amount of fibronectin in the culture supernatant or the extracellular matrix extract prepared using 1 M urea solution was determined by the EIA method as described in Example 7.
Furthermore, the amount of type I and type IV collagen in the culture supernatant was determined by the EIA method. Thus, 100 μl of the culture supernatant was added to a 96-well microtiter plate (manufactured by Nunc), and the plate was incubated overnight at 4° C. After washing, it was blocked using the above 1% BSA solution, and then 5000-fold diluted rabbit anti-mouse type I collagen antibody (manufactured by LSL) or rabbit anti-mouse type IV collagen antibody (manufactured by LSL) was added, and was further incubated at room temperature for 2 hours. After washing, alkaline phosphatase-labeled goat anti-rabbit Ig antibody (manufactured by TAGO) was added, and was further incubated at room temperature for one hour. Then the substrate solution (manufactured by Sigma) was added and absorbance at […] was measured. As a standard, mouse type I collagen (manufactured by Chemicon) or mouse type IV collagen (manufactured by Cosmobio) was used.

[2] = test system: Mv1Lu cell; assay: PAI-1 ELISA in culture supernatant of Mv1Lu cells with or without TGF-β1; format: cell-based, mink; settings: Mv1Lu cells with forced expression; 10 ng/ml TGF-β1, 24 hours; control cells about 16-fold
Source text: Accordingly, TAK1DN was subjected to forced expression in the Mv1Lu cell to investigate the effects of TGF-β stimulation on PAI-1 expression. The TAK1DN expression vector used was the above-mentioned TAK1DN, and the TAK1 polypeptide mutant TAK1-K63W expression vector was constructed by inserting a gene (Yamaguchi K. et al., (1995) Science 270, 2008-2011) encoding the TAK1 polypeptide mutant TAK1-K63W in which the lysine residue at position 63 has been replaced with the tryptophan residue at the EcoRI and NotI restriction enzyme site of pCOS1 to give pTAK1K63W.
The Mv1Lu cells into which pTAK1Dn had been introduced (Mv/DN2), the cells into which pTAK1K63W had been introduced (Mv/KN7), and the control cells into which pCOS1 containing no inserted genes (Mv/NEO) had been introduced were each incubated in a low-serum medium (MEM medium containing 0.2% FBS; manufactured by GIBCO-BRL) with or without 10 ng/ml of TGF-β1 for 24 hours. The amount of PAI-1 in the culture supernatant was determined using the PAI-1 Quantative ELISA (manufactured by CALBIOCHEM).

B1: TAK1-DN: polypeptide of Glu at position 77 to Gln at position 303 of TAK1 (SEQ ID NO: 4), the TAB1 binding site; dominant negative inhibitor (protein)
chain: ELRQLSRVNHPNIVKLYGACLNPVCLVMEYAEGGSLYNVLHGAEPLPYYTAAHAMSWCLQCSQGVAYLHSMQPKALIHRDLKPPNLLLVAGGTVLKICDFGTACDIQTHMTNNKGSAAWMAPEVFEGSNYSEKCDVFSWGIILWEVITRRKPFDEIGGPAFRIMWAVHNGTRPPLIKNLPKPIESLMTRCWSKDPSQRPSMEEIVKIMTHLMRYFPGADEPLQYPCQ
increase of type IV collagen in the culture supernatant by TGF-β addition ([1]; MED/DN3 cells): about 1.5 fold | increase of type I collagen in the culture supernatant by TGF-β addition ([1]; MED/DN3 cells): about 2.0 fold | increase of type IV collagen in the culture supernatant by TGF-β addition ([1]; MES/DN6 cells): ~1.4 fold | increase of type I collagen in the culture supernatant by TGF-β addition ([1]; MES/DN6 cells): about 2.0 fold | increase in PAI-1 in the culture supernatant by TGF-β1 addition [2]: about 4.3 fold
